Measurements as given in the supplement of paper PMC9942255.

Test system: Bacillus subtilis DB104 (SP-AmyQ fusion secretion)
Test: AmyQ secretion efficiency, weighted average sort bin (1 = best secretion, 10 = worst) (bin number (weighted average, 1-10)); higher = lower secretion efficiency
In short: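 Secretion score gives the read-frequency-weighted average bin number, normalised to beads per bin, with low-abundance sequences left out. A B. subtilis DB104 library expressing mature AmyQ fused to designed signal peptides, integrated at amyE, was encapsulated with fluorescein-starch at about 0.3 cells per ~65 nL alginate bead. Beads were grown about 13 h at room temperature, stained with nile red, and the occupied ones were sorted by large-particle flow cytometry into 10 equally populated bins by green/red fluorescence ratio before the amplicons from each bin were Illumina-sequenced.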

Row | Sequence | AmyQ secretion efficiency
1 | MKRITINIITMFIAAAVIEEDEEAEAAEK | 5.79
2 | MNSCSQLIVCSLAAILLLIPSVSFAADS | 4.9
3 | MRPVFPLILSAVLFLSCFRASASKR | 6.81
4 | MRGKSAVLLSLIMLIAGFLQQSFSFQM | 7.38
5 | MGSTGSIMFACLILFSFTITTFINTETISAFSN | 4.71
6 | MKKRFRRRKKRAFILFAGAIAIPS | 6.13
7 | MFKKLKRRKSALTFSLSLVLPLDGHAKAQEV | 6.09
8 | MFNRLFRVCKKKRKRMAFTLPNSVYAQKP | 7.15
9 | MKKRLIGFLVLVPALIMSGITLIEINKK | 7.02
10 | MRKKRVITCVMAASLTLGSLLPAGYATAATP | 2.04
11 | MKKRLIGFLVLVPALIMSGITLIEARKK | 7.62
12 | MRHKIITFILAVVVIIIIGNMIGGGGGSEATSH | 5.06
13 | MPYLKRVLLLLVTGLFMSLFAVTATASEQTG | 1.36
14 | MRNLTKTSLLLAGLCTAAQMVFVTHHSAEES | 4.26
15 | MMIKQCVICLSLLVFGTTAAHSEET | 4.24
16 | MRKKLKWLSFLLGFIILLFLFKYQRSNNDS | 7.7
17 | MKKVLMAFIICLSLILEDDDEEDSGAKAESV | 4.1
18 | MKSCKQLIVCSLAAILLLIPSVSFGADS | 3.57
19 | MKKRLIAPMLLSAASLAFFAKRKSAQAAAY | 7.88
20 | MKSKGSIMACLILFSFTITTFINTETGSAFSN | 5.58
21 | MKKLLAAGIIGLLTVSIASPSFAASC | 1.59
22 | MLKRTSFVSSLFISSAVLLSILRRKRRRAHAQSA | 7.6
23 | MKKKLAAGLTASAIVGTTLVVTPLEAATI | 3.17
24 | MKKKLAAGLTASAIVGTTLVVAEAATI | 5.78

Row | Sequence | AmyQ secretion efficiency
25 | MKLSVKIAGVLTVAAAAMVAIMGATAKGN | 8.27
26 | MLCVMMLLFSAIASFPVSVQAKDQ | 3.83
27 | MLTKRLLTIYIMLLGLIAWFPGAAQAASK | 1.8
28 | MKVPKTMLLSTAAGLLLSLTATSTSAHYV | 4.19
29 | MKSKGSIMACLILFSFTITTTINTETISAFSN | 5.95
30 | MKKRFFGPIILAFILFAGAIKIPS | 5.25
31 | MNKKYFVLIVCIIFTSALFPTFSSVTLAQG | 2.52
32 | MLKKKWMVGLLAGCLAAGGFSYNAFRTEN | 5.68
33 | MKKKLAAGLTASAIVGTTLVGGGAEAATI | 4.73
34 | MKKAFLVFLSVVLVTTVFLVKQQESVCQAKQL | 4.58
35 | MTLSVIIAGVLTVAAAAMTAKMYATAKGN | 6.67
36 | MAIIIAIIAAVIVIAALITFNVENASPG | 8.68
37 | MKTKTLFIFSAILTLSIFAPNEGFAQTA | 3.32
38 | MKWMCSICCAAVLLAGTVFLLGAAQAEAV | 3.59
39 | MKRFSTAYLLLGILCSAAVFLIGAPSRTLGAEV | 3.24
40 | MPYLKRVLLLLVTGLFMSLFAVTATASTQTG | 1.44
41 | MGMKKKLSLGVASAALGLALVGGGQWAAFN | 5.94
42 | MKLSVKIAGVLTVAAAAMTAKMYLTAKGN | 7.31
43 | MKRKLKRKKAISALSLGLLVSAPTASFAAES | 4.1
44 | MLCVMMLLFSAIASFPVSAQAKKK | 7.53
45 | MSKLVLCVSILAVILSGVALTQLS | 6.37
46 | MHLIRAAGAVCLAVVLIAGCRFNEDQHQVEGENT | 4.66
47 | MSFFTKNRLISSVLSTVVISSLLFPGAAGASSK | 1.61
48 | MKKWLIIAVSLAIAIVLFMYTKGEAKAAGK | 2.87

Row | Sequence | AmyQ secretion efficiency
49 | MHLIRAAGAVCLAVVLIAGCRFNEDQHQWEGENT | 5.73
50 | MNLRKILLSSALSLGMLVSAAPALATSS | 2.26
51 | MNKKYFVLIVCIIFTSALFPTDKKVTAAQG | 1.1
52 | MKVPKTMLLSTAAGLLLSLTATSASAHYV | 5.6
53 | MPYLKRVRRRRVTGLFMSLFAVTATASAQTG | 2.37
54 | MSFIIIPMTLALGAALTIAPLSFASAEEN | 6.39
55 | MKRIRIPMTLALGAALTIAPLSFASPEEN | 8.17
56 | MKKKQVMLALTAAAGLGLTALHSAPAAKPAPL | 4.99
57 | MTMLRKIIGWILLLCIIASFIVTPLFAFTVIASGKEV | 7.88
58 | MRMLWRSLALCGLALTLAPCAQCAEP | 3.11
59 | MRKKLKWLSFLLGFIILLFLFKYQFSNNKR | 5.8
60 | MLCVMMLLFSAIASFPVSAQDKDQ | 6.19
61 | MRIFKKAVFVIMISFLIATVNVNTAHGAID | 5.43
62 | MKKWTNMSLLIIAVSLAIAIVLFMYTKGEAKAAGM | 2.33
63 | MFNRLFRVCFLAALIMAFTLPNSDYAQKP | 6.44
64 | MKKRFFGPIILAFILFAAIAIPS | 6.38
65 | MKLWMRKTLVVLFTIVTFGLVSPPAAVMADKP | 2.79
66 | MKRLFMKARRRLFAVVFVFAVKGAPAKAETH | 6.05
67 | MLMKVILAAFILVGSTLGAFSFSSDASAKHV | 2
68 | MKKAAAVLLSLGLVFGFSYGAGHVAELKTK | 6.97
69 | MKKWTIIAVSLAIAIVLFMYTKGEAKAAGM | 2.14
70 | MLKKIALTLCPAIVGSLLFFTAPASGHVS | 2.72
71 | MKKKLAAGLTASAIVGTTLVVTPAERATI | 5.86
72 | MFKFKKNGKSRRTAALMSISLFSATASAAST | 4.18

Row | Sequence | AmyQ secretion efficiency
73 | MFKKHTISLLIIFLLAATFFSFTSLISAVLAKPIEAHTV | 4.38
74 | MKRQSQTLSFLSIIVAYPIQTNASPM | 8.43
75 | MNKFLKSNFRFLLAAALGISLLASSNFCKASND | 1.73
76 | MKRFILVLSFLSIIVAYPIQSNASPM | 5.96
77 | MRIKQCVICLSLLVFGTTAAHAEET | 2.98
78 | MKRQKQKYLLLGILCSAAVFLIGAPSRALGAEV | 3.43
79 | MKLAKRVSALTPSTTLAITAKSKEL | 7.27
80 | MLKKIALTLCPAIVGSLLFFTDEDASAHVS | 4.47
81 | MKKQIITATTAVVLGSTLFAVGAASAQSI | 2.23
82 | MRHKIITFILAVVVIIIIGNMIGGGGGSEAEDD | 6.34
83 | MKVLLSALLLLLFAFFEPSASGKKL | 6.51
84 | MKLRKVLTGSVLSLGLLVSASPIFATSP | 1.63
85 | MTMLRKIIGWILLLCIIPLFAFTVIASCKEV | 8.74
86 | MKRLLSTLLIGIMLLFFAGVAFAKQD | 3.63
87 | MRSKKILWISLLFALTLIFTMAFSNMSAQAAGK | 2.64
88 | MKKKLAAGLTASAIVGTTLVVTPAEEATI | 6.94
89 | MKKRLIAPMLLSAASLAFFAMSGSCQAAAY | 2.58
90 | MKVLLSALLLLLFAFEPSASGAKR | 4.45
91 | MKKGIIRFLLVSFVLFFALDEDITGVQAAPA | 3.78
92 | MLKKKWMVGLLAGCLAAGGFSYNAFQTEN | 6.95
93 | MKKMSNSTNSMSVLMAFIICLSLILSVLAAPPSGAKAESV | 1.73
94 | MTMLRKIIGWILLLCIIKKRRRRVIASGKEV | 7.19
95 | MKKQIITATTAVVLGSTLFARKKRKKASAQSI | 7.27
